Patent publication US20240368301A1 (HANGZHOU JIUYUAN GENE ENGINEERING, published 2024)
Like-named read-outs stand apart in the source and are kept apart here.

T1: cynomolgus macaques SIRPα-his (ACRO, Cat #SIA-C52H7) (cynomolgus macaque, UniProt A0A2K5VYQ9 31-369)
T1 construct: also called Monkey SIRPα; cynomolgus macaque SIRPα
T1 sequence: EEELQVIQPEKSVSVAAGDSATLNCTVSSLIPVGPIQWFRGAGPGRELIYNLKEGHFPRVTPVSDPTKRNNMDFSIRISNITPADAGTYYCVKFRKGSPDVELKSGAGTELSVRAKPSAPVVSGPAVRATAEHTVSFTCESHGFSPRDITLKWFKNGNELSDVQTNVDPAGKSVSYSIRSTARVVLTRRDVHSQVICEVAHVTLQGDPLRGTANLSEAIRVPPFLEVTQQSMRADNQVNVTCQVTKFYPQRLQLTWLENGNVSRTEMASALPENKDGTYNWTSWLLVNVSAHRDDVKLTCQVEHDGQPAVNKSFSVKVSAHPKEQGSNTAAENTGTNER

B1: 18D5 (antibody, V domains shown)
VH: QVQLQQPGAELVRPGSSVKLSCKASGYTFTSYWVHWVKQRPIQGLEWIGNIDPSDSDTHYNQKFKDKASLTVDKSSSTAYMQLSSLTFEDSAVYYCVRGGTGTMAWFAYWGQGTLVTVSA
VL: DVVMTQTPLSLPVSLGDQASISCRSSQSLVHSYGNTYLYWYLQKPGQSPKLLIYRVSNRFSGVPDRFSGSGSGTDFTLKISRVEAEDLGVYFCFQGTHVPYTFGSGTKLEIK
B2: H7L4-G1 (antibody, human IgG1, kappa)
heavy: not shown
light: DIVLTQSPASLAVSPGQRATITCRASESVDSYGNSFMHWYQQKPGQPPKPLIYLASNLESGVPARFSGSGSGTDFTLTINPVEANDAANYYCQQNNEYPWTFGGGTKVEIKRTVAAPSVFIFPPSDEQLKSGTASVVCLLNNFYPREAKVQWKVDNALQSGNSQESVTEQDSKDSTYSLSSTLTLSKADYEKHKVYACEVTHQGLSSPVTKSFNRGEC
notes: Humanized antibody with wild type human IgG1 and kappa; also called H7L4-G1w
B3: H7L4-G1lala (antibody, human IgG1, kappa, L234A L235A)
heavy: not shown
light: B2 light
notes: also called humanized antibody H7L4

Columns and labels:
[1] = biological target: T2, SIRPα V1-his (ACRO, Cat #SIA-H5225) (human, UniProt P78324 31-370); assay: BLI (Octet RED 96), His-tagged antigen on Ni-NTA sensor, antibody in solution
T2 construct: not shown: His tag
Method: (§1) SIRPα V1-his (ACRO, Cat #SIA-H5225), SIRPα V2-his (made by transient transfection of HEK293F cells according to SEQ ID NO:38 sequence), SIRPβ-his (Novoprotein, Cat #CS93), SIRPγ-his (Sino Biological, Cat #11828-H08H) or cynomolgus macaques SIRPα-his (ACRO, Cat #SIA-C52H7) at 5 μg/mL was loaded to a Ni-NTA biosensor for 600 s. […] The data were fitted to calculate the affinity.

[2] = biological target: T3, SIRPα V2-his (made by transient transfection of HEK293F cells according to SEQ ID NO:38) (Homo sapiens (Human), UniProt P78324 31-373); assay: as above
T3 construct: it is the full-length precursor, starting with MEPAG... and including the transmembrane and cytoplasmic parts; not shown: His tag
Method: as §1

[3] = biological target: T4, SIRPβ-his (Novoprotein, Cat #CS93) (UniProt O00241 30-371, limits assumed); assay: as above
Method: as §1

[4] = biological target: SIRPγ-his (Sino Biological, Cat #11828-H08H) (UniProt Q9P1W8 29-360); assay: as above
Method: as §1

[5] = biological target: T2, SIRPα V1-his (ACRO, Cat #SIA-H5225); assay: ELISA
[6] = biological target: T4, SIRPβ-his (Novoprotein, Cat #CS93); assay: ELISA
[7] = biological target: T2, SIRPα V1-his (ACRO, Cat #SIA-H5225); assay: competition ELISA: coated SIRPα-V1-his, antibody titrated against biotin-CD47, streptavidin-HRP (panel SIRPα-V1-CD47)
[8] = biological target: T5, SIRPα-V2 on CHOZN-SIRPα-V2 cells (Homo sapiens (Human), UniProt P78324 31-504); assay: FACS on cells carrying the target
Method: (§2) After washing, cells were stained with 0.2 μg goat anti-hIgG Fc-AF488 (Jackson ImmunoResearch, Cat #109-546-170) at 4° C. for 30 min. After washing again, cells were resuspended in 50 μL of DPBS/1% FBS and analyzed by FlowJo V10 and GraphPad Prism6 software.

[9] = biological target: T6, SIRPα-V8 on stably transfected cells (Homo sapiens (Human), UniProt P78324 31-504); assay: FACS on cells carrying the target
T6 construct: also called CHOZN-SIRPα-V8; 293T-SIRPα-V8
Method: as §2

[10] = biological target: T7, SIRPα-V1 on 293T-SIRPα-V1 cells (human, UniProt P78324 31-504); assay: FACS on cells carrying the target
T7 construct: Stably transfected cell line
Method: as §2

[11] = biological target: T3, SIRPα V2-his (made by transient …); assay: competition ELISA: coated SIRPα-V2-his, antibody titrated against biotin-CD47, streptavidin-HRP (panel SIRPα-V2-CD47)
[12] = biological target: T2, SIRPα V1-his (ACRO, Cat #SIA-H5225); assay: competition ELISA: coated SIRPα-V1-his, antibody titrated against biotin-CD47, streptavidin-HRP (panel SIRPα-V1-CD47); remark: listed apart in the source
Method: 100 μL of 1 μg/mL of recombinant SIRPα-V1-his and SIRPα-V2-his were coated overnight at 4° C. in Maxisorp ELISA 96-well plates. […] After washing, each well was added with 0.2 μg Streptavidin-HRP, substrate TMB, and read by an enzyme marker.

[13] = biological target: T7, SIRPα-V1 on 293T-SIRPα-V1 cells; assay: competition FACS: 293T-SIRPα-V1 cells, antibody titrated against CD47-FITC, % of blocking (panel SIRPα-V1-CD47)
Method: (§3) After washing, cells were analyzed by utilizing FlowJo V10 and GraphPad Prism6 software.

[14] = biological target: T5, SIRPα-V2 on CHOZN-SIRPα-V2 cells; assay: competition FACS: CHOZN-SIRPα-V2 cells, antibody titrated against CD47-FITC, % of blocking (panel SIRPα-V2-CD47)
Method: as §3

[15] = biological target: T2, SIRPα V1-his (ACRO, Cat #SIA-H5225); assay: BLI (ForteBio Octet RED 96): SIRPα V1-his on Ni-NTA biosensor, antibody in a 1:2 series of 7 concentrations (row SIRPα-V1)
Method: 5 μg/mL SIRPα V1-his and SIRPα V2-his was loaded to a Ni-NTA biosensor for 600 s, respectively. […] The binding time was 200 s and the dissociation time was 600 s. The data were fitted to calculate the affinity.

[16] = biological target: T8, SIRPα-V8-his (Sino Biological, Cat #30015-H08H); assay: ELISA: coated SIRPα-V8-his, antibody titrated, goat anti-hIgG Fc HRP (panel SIRPα-V8)
T8 construct: The His tag belongs to the same chain; not shown: exact C-terminal limit of the vendor's construct
Method: (§4) 100 μL of 1 μg/mL of SIRPα-V1-his, SIRPα-V2-his and SIRPα-V8-his (Sino Biological, Cat #30015-H08H) were coated overnight at 4° C. in Maxisorp ELISA 96-well plates. […] After washing, 100 μL of 1:5000 dilution of goat Anti-hIgG Fc HRP (Invitrogen, Cat #A18823) was added to each well and incubated for 1 h. TMB substrate was used for color development and enzyme marker readings.

[17] = biological target: T2, SIRPα V1-his (ACRO, Cat #SIA-H5225); assay: ELISA: coated SIRPα-V1-his, antibody titrated, goat anti-hIgG Fc HRP (panel SIRPα-V1)
Method: as §4

[18] = biological target: T1, cynomolgus macaques SIRPα-his (ACRO, …); assay: ELISA: coated cynomolgus macaques SIRPα-his, antibody titrated, goat anti-hIgG Fc HRP (left panel)
Method: 100 μL of 1 μg/mL of cynomolgus macaques SIRPα-his were coated overnight at 4° C. in Maxisorp ELISA 96-well plates. […] After washing, each well was incubated with 100 μL of 1:5000-fold diluted goat anti-hIgG Fc HRP for 1 h at 37° C. and then substrate TMB, and read by an enzyme marker.

[19] = biological target: T7, SIRPα-V1 on 293T-SIRPα-V1 cells; assay: FACS titration on 293T-SIRPα-V1 cells, goat anti-hIgG-AF488 (panel SIRPα-V1)
Method: (§5) After washing, cells were stained by 0.2 μg of goat anti-hIgG-AF488 at 4° C. for 30 min, resuspended in […] of DPBS/1% FBS, and analyzed by FlowJo V10 and GraphPad Prism6 software.

[20] = biological target: T6, SIRPα-V8 on stably transfected cells; assay: competition FACS: 293T-SIRPα-V8 cells, antibody titrated against CD47-FITC, % of blocking (panel SIRPα-V8-CD47)
Method: as §3

[21] = biological target: T9, SIRPγ on cells (Jurkat cells) (UniProt Q9P1W8 29-387); assay: FACS titration on SIRPγ-carrying cells, goat anti-hIgG-AF488 (panel SIRPγ)
T9 construct: whole, on cells

[22] = biological target: T6, SIRPα-V8 on stably transfected cells; assay: FACS titration on 293T-SIRPα-V8 cells, goat anti-hIgG-AF488 (panel SIRPα-V8)
Method: as §5

[23] = biological target: T7, SIRPα-V1 on 293T-SIRPα-V1 cells; assay: FACS titration on 293T-SIRPα-V1 cells, goat anti-hIgG-AF488 (panel SIRPα-V1); remark: listed apart in the source
Method: (§6) 2×10⁵ per well of stable transfer construct cell lines 293T-SIRPα-V1 (SEQ ID NO: 2), CHOZN-SIRPα-V2 (SEQ ID NO: 38), and CHOZN-SIRPα-V8 (SEQ ID NO: 39) in logarithmic phase were dispended in 96-well U-shaped culture plates, […] After washing, the cells were incubated with 0.2 μg of goat anti-hIgG-AF488 for 30 min at 4° C., then resuspended in 50 μL of DPBS/1% FBS and analyzed by flow cytometry with FlowJo V10 and GraphPad Prism6 software.

[24] = biological target: T6, SIRPα-V8 on stably transfected cells; assay: FACS titration on CHOZN-SIRPα-V8 cells, goat anti-hIgG-AF488 (panel SIRPα-V8)
Method: as §6

| Binder | IC50 (read off the curve) [12] [nM] | IC50 (read off the curve) [13] [nM] | IC50 (read off the curve) [14] [nM] | Kd [15] [pM] | koff [15] [s⁻¹] | EC50 (read off the curve) [16] [nM] | EC50 (read off the curve) [17] [nM] | EC50 (read off the curve) [18] [nM] | EC50 (read off the curve) [19] [nM] | IC50 (read off the curve) [20] [nM] | binding result [21] | EC50 (read off the curve) [22] [nM] | other results |
| --- | --- | --- | --- | --- | --- | --- | --- | --- | --- | --- | --- | --- | --- |
| B1 |  |  |  |  |  |  |  |  |  |  |  |  | Kd [1]: 0.115 nM; koff [1]: 7.76e-05 s⁻¹; kon [1]: 674000 M⁻¹ s⁻¹; Kd [2]: 1.07 nM; koff [2]: 0.000601 s⁻¹; kon [2]: 561000 M⁻¹ s⁻¹; Kd [3]: 0.0137 nM; koff [3]: 2.36e-05 s⁻¹; kon [3]: 1.72e+06 M⁻¹ s⁻¹; Kd [4]: 1.23 nM; koff [4]: 0.000896 s⁻¹; kon [4]: 728000 M⁻¹ s⁻¹; EC50 [5]: 0.13 nM; EC50 [6]: 0.196 nM; IC50 (read off the curve) [7]: ~20 nM; EC50 [8]: 3.65 nM; EC50 [9]: 8.76 nM; EC50 [10]: 1.08 nM; IC50 (read off the curve) [11]: ~30 nM |
| B2 | ~3 | ~0.2 | ~0.1 | < 1 | < 1e-07 | ~0.02 | ~0.03 | ~0.04 | ~0.5 | ~10 | binds | ~0.8 |  |
| B3 | ~3 | ~0.1 | ~0.2 | < 1 | < 1e-07 | ~0.02 | ~0.03 | ~0.04 | ~0.4 | ~7 | binds | ~0.6 | EC50 (read off the curve) [23]: ~3 nM; EC50 (read off the curve) [24]: ~0.6 nM |
